Laboratory results as given in paper PMC5797941.

Target: T1, His6-SlyA (Escherichia coli K-12 MG1655?) (UniProt P0A8W3)
T1 sequence: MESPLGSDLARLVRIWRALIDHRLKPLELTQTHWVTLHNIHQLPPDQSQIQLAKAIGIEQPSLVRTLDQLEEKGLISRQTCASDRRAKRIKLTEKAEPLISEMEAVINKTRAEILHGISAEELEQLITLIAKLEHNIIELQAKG
Experiment: EMSA
Conditions: 20 µl: 10 mM Tris/HCl pH 7.5, 50 mM KCl, 1 mM DTT, poly(dI-dC) (1 µg), ~1 nM biotin-DNA, 0-500 nM SlyA, 25 °C, 30 min

Sequence | DNA binding | binding
GCAAGCACCTTAAAATCACCATCATACACTAAATCAGTAAGTTGGCAGCATTACCGAAATCCCCATCCTTTAGGGCAGTGAGGATGTCAATAATAGCAGACCACATCATGAGTCATTCTGACCGACACATGCCAGAAGCAGAGGCTCCATCCCATTTTATACCTACCTTATAACACTTAGAAAAACAACATGTTAAAAATGTCTATTGGAAACAATTTTATTTCCAATTGTAATGATAACCATTCTCATATTAATATGACTACGTGATAATTAACTTTTGATGCACTCCGC (double strand) [fecI-insA-7 intergenic region] | binds | 
GATGGGGATAAGCAGAGCGCTTATCCCCGGCAAAGAGCAATAACCCTTCTGCGATCCCTGCCGCCTTCGTCAAAAGTATCGACGGGGATCGCTACCAGATTAACCCGAATCGGCATGGAGTCAACGACGG (double strand) [sgcA-sgcQ intergenic region] |  | no binding
GATGTATGTTCTAATAAAATAGATTGGGTGGGTTGTATATTGACGTTAGTATAAATAGTATTAATGCCGCTTGCATGAATCAAGCAAAATTTATTTATATTAGTAATATGTATTTAATTAATAAATACATACATTATTTTTATGATTAAGGATAATCAATAATTAAAACAGGAAGTTCT (double strand) [gspA-gspC intergenic region] | binds | 
TGTTGCTAATAGTTAAATCGCGAATCATAAAAAGCAAAGGATCTTTTAACGAAATGTTAACTATGCGATCTGTATAGCAACTGCGGAAAACATTAATGCACTGATAAATAATGATTTATAAAAATAGGGTGCGAAATCCGTCACAGTTCAAACATACAAAATTTGTGATTTTACTTAACTATTGTGTAACTTTCATAAAACAATGTGATTCGTGTTTTTAATTAATTCACGAAAACTGGAATCGTAAAGGTGATGAC (double strand) [paaA-paaZ intergenic region] | binds | 
